The values below are quoted from earlier work in PMC6903724.

In general, Kd refers to the constant that tells how readily two partners part at equilibrium.

The target in this data set is IL-18 (Homo sapiens) (UniProt Q14116).
IL-18 (Homo sapiens), sequence (Q14116 37-193): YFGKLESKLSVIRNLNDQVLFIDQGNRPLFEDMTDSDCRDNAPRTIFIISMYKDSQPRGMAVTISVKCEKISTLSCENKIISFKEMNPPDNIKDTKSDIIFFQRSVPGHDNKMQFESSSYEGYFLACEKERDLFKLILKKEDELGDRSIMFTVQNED

IL-18BP, sequence (O95998 31-194): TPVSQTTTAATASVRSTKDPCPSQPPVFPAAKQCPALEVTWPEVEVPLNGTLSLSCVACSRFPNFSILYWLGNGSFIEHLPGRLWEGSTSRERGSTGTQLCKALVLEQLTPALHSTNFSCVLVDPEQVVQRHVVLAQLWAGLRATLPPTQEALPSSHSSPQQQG

IL-18BP (from UniProt O95998): the Kd was 0.4 nM.
